Numbering of substitutions follows the chain as printed.

The target in test [1] is T1, Oxa-23 (Acinetobacter baumannii, UniProt Q9L4P2).
T1 construct: endogenous in cells; host or cells: OMVs of GC2 A. baumannii clinical strains
The test can be described thus: Specific binding to Oxa-23 on OMVs (summary statement). The following applies: on outer membrane vesicles (OMVs) of Acinetobacter baumannii bacteria.

In test [2] the target is T2, Oxa-23 carbapenemase enzyme (Acinetobacter baumannii, UniProt Q9L4P2 18-273).
T2 construct: No signal peptide cleavage site is stated; also called class D beta-lactamase; 30kD protein
T2 sequence (Q9L4P2 18-273 limits assumed): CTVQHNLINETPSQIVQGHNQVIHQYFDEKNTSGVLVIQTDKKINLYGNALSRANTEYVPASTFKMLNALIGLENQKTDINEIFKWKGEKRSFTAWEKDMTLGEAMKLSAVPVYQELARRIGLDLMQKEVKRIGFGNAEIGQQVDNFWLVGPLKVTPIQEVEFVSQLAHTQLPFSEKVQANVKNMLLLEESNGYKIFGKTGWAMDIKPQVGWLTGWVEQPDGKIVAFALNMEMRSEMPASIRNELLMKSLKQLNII
The test can be described thus: binding to Oxa-23 on A. baumannii OMVs; method not given at this place.

Test [3] deals with T2, Oxa-23 carbapenemase enzyme. The test can be described thus: serological expression cloning: mAb screened on plaques of a phage expression library of A. baumannii genomic DNA (BAL 084, BAL 276), bound phage sequenced.
In test [4] the target is T1, Oxa-23. As to the kind of experiment: Phage expression library screen (serological expression cloning) for antigen identification. The format is binding. The settings on record: phage expression library of genomic DNA from strains BAL 084 and BAL 276. An excerpt: The particular binding antigen (e.g. Oxa-23, OC1 LOS, or KL49) of an antibody may be determined using a phage expression library e.g. as described in Example 5. For example, shotgun A. Baumannii genomic DNA is incorporated into a phage expression library. The antibody is then screened for reactivity with phage plaques from the expression library and the individual phage binding to the antibody is identified. The identified phage is sequenced, and the sequencing information used to elucidate the binding antigen of the antibody. A suitable phage method for antigen identification will be known to a person skilled in the art. For example, a suitable phage method is described in Lodes M J, Dillon D C, Houghton R L, Skeiky Y A. Expression cloning. Methods Mol Med. 2004; 94:91-106. doi: 10.1385/1-59259-679-7:91. PMID: 14959824, the contents of which are incorporated by reference.
Focusing on the cross-reactive mAbs identified, we used a phage expression library incorporating shotgun A. baumannii genomic DNA from strains BAL 084 and BAL 276. […] The LOS types were determined for a selection of isolates by OCL specific PCR. […] Next, LOS was extracted (with extensive proteinase K treatment to remove any proteins) and analyzed by Western blot using mAb 1042). […] Capsule antigens were extracted from selected strains bearing KL49 and analyzed by subsequent SDS-PAGE and Western blot analysis using the mAb 1416.

The subject of a further test is E. coli NCTC 13441 LPS. The test can be described thus: Western blot of extracted LPS (control). It counts as binding. The settings on record: E. coli NCTC13441 (025b). An excerpt: (§1) Focusing on the cross-reactive mAbs identified, we used a phage expression library incorporating shotgun A. baumannii genomic DNA from strains BAL 084 and BAL 276. Because the mAbs could potentially bind a polypeptide epitope, we screened mAbs for reactivity with phage plaques from the phage expression library. Using this screening mechanism, we were able to identify individual phage binding to Abs 1348, 1349. By sequencing the phage, we were able to elucidate 1348 and 1349 bound Oxa-23, a class D […] that is a major group of enzymes involved in resistance to carbapenem antibiotics. That we have identified mAbs binding to Oxa-23 in a target agnostic screen is highly significant. […] Secondly, since Oxa-23 is a functional enzyme that inactivates carbapenem and carbapenem resistance is a major clinical issue for the treatment of nosocomial A. baumannii infection, it may be possible to block enzymatic function of Oxa-23 by mAbs and render A. baumannii susceptible to carbapenems. […] The LOS types were determined for a selection of isolates by OCL specific PCR. […] Next, LOS was extracted (with extensive proteinase K treatment to remove any proteins) and analyzed by Western blot using mAb 1042). […] Capsule antigens were extracted from selected strains bearing KL49 and analyzed by subsequent SDS-PAGE and Western blot analysis using the mAb 1416.
For orientation: Immunoblotting shows a protein as a band on a membrane.

The subject of another test is OC1 LOS. As to the kind of experiment: Western blot of extracted LOS. It counts as binding, Acinetobacter baumannii.
From the text: as §1

T1 sequence (Q9L4P2 18-273): as the sequence (Q9L4P2 18-273 limits assumed) above

B1: Antibody 1548 (antibody, V domains shown)
VH: QVQLVESGGGVVQPGRSLRLSCAASGFTFSSYAMHWVRQAPGKGLEWVAVISYDGSNKYYADSVKGRFTISRDNSKNTLYLQMNSLRAEDTAVYYCAGYGGNSLDPWGQGTLVTVSS
VL: AIQMTQSPSSLSASVGDRVTITCRASQGIRNDLVWYQQKPGKAPKVLIYDASSLQSGVPSRFSGSGFGTDFTLTISSLQPEDFATYYCLQDYNYPCSFGQGTKLEIK
notes: also called PPB-1548
On to B1, for which the “specific binding to Oxa-23” value with Oxa-23 [1] is “specifically bind to Oxa-23”. Moreover, in test [2], the binding result is on record as “binds”.

B2: Antibody 1348 (antibody, V domains shown)
VH: EVQLVESGGGFVQPGRSLRLSCIASGFTFDDYAMHWVRQTPGKGLEWVSVISWNSVSIGYADSVKGRFTISRDNAKNSLYLQMNSLRAEDTALYYCARYSSGPDAFDIWGQGTMVTVSS
VL: DIQMTQSPSSLSASVGDRVTITCRASQDIRNDLGWYQQKPGKAPKRLIYAASSLQSGVPSRFSGSGFGTEFTLTISSLQPEDFATYYCLQHYTYPPTFGGGTRVEIK
notes: Only variable domains are tied to 1348; also called PPB-1348
In the case of B2, in test [3], the binding result was “binds”.

B3: Antibody 1540 (antibody, V domains shown)
VH: B2 VH
VL: B2 VL
notes: also called PPB-1540
On to B3, for which the binding result in test [2] is “binds”.

B4: 1348 (antibody, V domains shown)
VH: B2 VH
VL: B2 VL
For B4, in the test with Oxa-23 [4], the “antigen bound, elucidated by sequencing the binding phage” value is “bound Oxa-23”. In addition, the “specific binding to Oxa-23” value with Oxa-23 [1] is “specifically bind to Oxa-23”.

B5: 1540 (antibody, V domains shown)
VH: B2 VH
VL: B2 VL
As to B5, the “specific binding to Oxa-23” value with Oxa-23 [1] is reported as “specifically bind to Oxa-23”.

B6: Antibody 1550 (antibody, V domains shown)
VH: QVQLVESGGGVVQPGRSLRLSCAASGFTFSSYGMHWVRQAPGKGLEWVAVISYDGSNKYYADSVKGRFTISRDNSKNTLYLQMNSLRAEDTAVYYCAKESLTMVRGEGFDPWGQGTLVTVSS
VL: DIQMTQSPSSVSASVGDRVTITCRASQGISSWLAWYQQKPGKAPKLLIYAASSLQSGVPSRFSGSGSGTDFTLTISSLQPEDFATYYCQQANSFPCSFGQGTKLEIK
notes: also called PPB-1550
With B6, the “specific binding to Oxa-23” value with Oxa-23 [1] was “specifically bind to Oxa-23”. In test [2], the binding result is given as “binds”.

B7: Antibody 1349 (antibody, V domains shown)
VH: QITLKESGPTLVKPTQTLTLTCTFSGFSLSTSGVGVGWIRQPPGKALEWLALIYWDDDKRYSPSLKSRLTITKDTSKNQVVLTMTNMDPVDTATYYCAHSYYYDSSDSYYFDYWGQGTLVTVSS
VL: DIQLTQSPSFLSASVGDRVTITCWASQGISSRLAWYQQKPGKAPKLLIYAASTLQSGVPSRFSGSGSGTEFTLTISSLQPEDFGNYYCQQFNTYPFTFGPGTKVDIKR
notes: It was expressed as human IgG1; also called PPB-1349
Regarding B7, the binding result in test [3] is “binds”.

B8: Antibody 1042: anti-OC1 LOS antibody; VH SEQ ID No: 188, VL SEQ ID No: 191 (antibody, V domains shown)
VH: B7 VH with L52V, L69V, Y103H, G115A
VL: DIQLTQSPSFLSASVGDRVTITCWASQGISSRLAWYQQKPGKAPKLLIYAASTLQSGVPSRFSGSGSGTEFTLTISSLQPEDFATYYCQQLTSYPFTFGPGTKVDIK
In the case of B8, the “binding to extracted LPS” value in the test on E. coli NCTC 13441 LPS is reported as “no binding”. Further, in the test on OC1 LOS (ATCC 17978 (OCL2)), the “binding to extracted LOS” value is “no binding”. In the test with OC1 LOS (OC1 isolates A. baumannii BAL_191, BAL_339, BAL_372), the “binding to 10kD target in extracted LOS” value is recorded as “Specific binding”.

(Values after patent US20250026816A1, “Antibodies for Use as Therapeutics Against Bacterial Infections” (priority 2021, published 2025).)
